± gives the half width of the 95% confidence interval.
Tests used:
[1] = folding stability dG unfold from chymotrypsin proteolysis; higher = more stable
In short: (§1)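 K50 was inferred by Bayesian fitting of sequencing counts obtained after protease digestion of designed mini-proteins. Unfolding free energy was derived by comparison with a sequence-predicted unfolded-state K50 and a shared folded-state K50, for each protease or both combined. The mini-proteins were under 80 residues, had no cysteine, were carried in a PA-tagged cDNA display construct, and were kept only if AlphaFold2 dimer inter-PAE exceeded 15.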

[2] = folding stability dG unfold from trypsin proteolysis; higher = more stable
In short: as §1

[3] = folding stability dG unfold (combined trypsin and chymotrypsin); higher = more stable
In short: as §1

Sequence	folding stability dG unfold [1] [kcal/mol]	folding stability dG unfold [2] [kcal/mol]	folding stability dG unfold [3] [kcal/mol]
SAGMKEGEVEKVEVEVEITIEVYNENGEKVKTFKAKVKVEVVRNENGELYVKAEIEFEDGTKFEFVVKLSAG [r5_580_TrROS_Hall]	3.71 ± 0.09	2.96 ± 0.35	3.81 ± 0.54
SAGGSAGGMKVTIEKENGKYRIKVEIEKNGKKIEIEIDMSVEELKKELEKKLNIKIKKVEIEPVSAGGSAGG [r6_762_TrROS_Hall]	1.03 ± 0.53	1.7 ± 0.2	1.5 ± 0.66
GFVLIPFRLDDPDVTAGEIAEEVEKALPPEYGPLRLRVFFEDGSVLELEPGEKLGEHFEPDDEILVLVEGDS [r1_56_TrMRF]	1.37 ± 0.12	1.24 ± 0.042	1.22 ± 0.14
SAGGMKIVSESTDPSVPTSYVTIEITDPKTGKKTTIKLPQDPAAGTGSPEALAKEVREKLKLPEGVELSAGG [r13_362_JUSTAS]	1.01 ± 0.053	0.221 ± 0.083	0.814 ± 0.073
SAMVTIDYETLKELYEAGDPAKVEEILKKAYEEDPNKTITVIVPEDEKYKNLVLEAAKKMGLPITITGPSAG [r14_236_JUSTAS]	3 ± 0.051	2.46 ± 0.068	2.83 ± 0.073
SAGGSAGGSFVDPDGYKVIEFPIPMDDPGRIKEEVMDQFNLKDVKVEWEPTPGWYWVSIIVEPSAGGSAGGS [r12_929_TrROS]	0.815 ± 0.16	0.74 ± 0.093	0.832 ± 0.14
SMTLPLLFVFPVNSPEELEKARKLAEEEVKELAEELGVKVKIEKVEYFVNPEGDYVLIRAYVTVTSPEEESA [r9_105_TrMRF]	4.07 ± 0.1	3.18 ± 0.054	3.76 ± 0.086
SAGGSAGGSAKPKVKIKIEVTVNEDGTVTVRAEIEVNGKKYTIEVKIKIKAPKPEKVKLFKKSAGGSAGGSA [r18_507_TrROS_Hall]	-0.2 ± 0.84	0.919 ± 0.066	0.497 ± 0.48
SAGGSMPPETEVTVTVEEFEEDPSRRLRVTITTPDGTVVTTDLENPGELSPEEEARIAALAAALAASAGGSA [r2_17_JUSTAS]	1.96 ± 0.027	0.486 ± 0.026	1.58 ± 0.055
SAGGSAGGSKKKIKITVEKVDEEKGYYYVTIEIYDEETGELVEKKTIVAPSKEEALKALKELLSAGGSAGGS [r12_26_TrROS_Hall]	3.5 ± 0.2	4.41 ± 0.32	4.08 ± 0.35
SAGGSAGGSMPGETVTLNVKTTVEVTTTLSSPSGSPFPVSVTREVTIPITVSSEELKKGLITLESAGGSAGG [r6_138_JUSTAS]	0.291 ± 0.15	-0.473 ± 0.2	0.229 ± 0.13
SAGGSKLTVEEIKKLFPNVEVTKKEDGTYEMRVTVEVTLPNGEKKKVEVTVKVEVKDGKIVKVEVTSAGGSA [r2_104_TrROS_Hall]	3.17 ± 0.092	2.44 ± 0.15	2.9 ± 0.12
SAGMMVVVELTVGFEPDEIEPEEIREAIEEHAAEVEIDPNPETDILPIRVIAEPGKIEAIVDALKEAGGSAG [r5_378_TrMRF]	0.0668 ± 0.19	1.08 ± 0.069	0.671 ± 0.22
SAGGSAGGSAGMVVETSKNPPTSDTVVTTLVPSPNSTTVTTTIVSPDPNTIKETTTTPTPSAGGSAGGSAGG [r11_100_JUSTAS]	1.23 ± 0.019	2.41 ± 0.064	1.8 ± 0.034
SAGLVVTKLPGDGTLRITLPPPGAPLVLTIPLDPGNGTLSVTVTRPDGRSETYTFPGGSIDEVIERLLSAGG [r19_159_JUSTAS]	2.902 ± 0.021	2.37 ± 0.074	2.72 ± 0.093
SAGGMPLPDEKVNITITINYTLPGGKPKTITIPATNWTVEEANEKKKKVEEELKKVPPDPVEKDGKLLSAGG [r13_330_JUSTAS]	-0.281 ± 0.24	-0.745 ± 0.19	-0.354 ± 0.21
SAGGSAGGSKKKYIIKVKIYNENGELVEEKEIEAESEEEALEALAKNPNISKEEITKIEVYELSAGGSAGGS [r12_182_TrROS_Hall]	2.1 ± 0.054	2.24 ± 0.041	2.19 ± 0.08
SAGGGRTITVTARFTDPATGTTTTETITIDVPSDTSEEEKKEIAEKTVKEIAEKNGVKSEIESISITSAGGS [r8_312_JUSTAS]	2.3 ± 0.17	4.24 ± 0.29	4.32 ± 0.7
SAGGSSMTVTKLPTNKTVTTRPLPSSSSVTTTTTFDPNSPVATVTTTDTSSDTSTTTTVPLGPGAFSAGGSA [r2_114_JUSTAS]	0.892 ± 0.06	0.783 ± 0.035	0.824 ± 0.11
SAGGSAGGSAGGKTVVLFVDPKTKKVYILYPDGKIETLSPEELKNKPIIVKPVKLHPKAGSAGGSAGGSAGG [r7_98_TrMRF]	1.86 ± 0.053	0.817 ± 0.024	1.56 ± 0.053
SPLERLLRAILNAPADTTIVVPLPDDLVAVIRIEPATTELDGVPYRFLVARIEIRNPDGVLLGELTLVLPLS [r1_386_TrMRF]	5.78 ± 0.091	3.88 ± 0.086	5.63 ± 0.11

Sequence	folding stability dG unfold [1] [kcal/mol]	folding stability dG unfold [2] [kcal/mol]	folding stability dG unfold [3] [kcal/mol]
SAGGKTKVINVKVKSIEELLEKLAKLPNVKKVEVKEVNGKKEITIEVDGKKIKITKNKDGYYSIEIFPSAGG [r13_907_TrROS_Hall]	1.98 ± 0.34	2.16 ± 0.12	2.25 ± 0.37
SAGGSAGGSAGTSIKEAKIKLPSNGKTYKAIVTTHPNGKKYVYIPETGKVYELNNLIIEPSAGGSAGGSAGG [r11_301_TrMRF]	2.32 ± 0.055	1.4 ± 0.047	2.02 ± 0.059
SAGGSAGGSAGGSSITIEEEGGKLRITVTNENGEKSEFEFPPGAKITLPEGVKLELEKESAGGSAGGSAGGS [r4_447_TrROS_Hall]	1.13 ± 0.019	0.549 ± 0.082	0.84 ± 0.073
SAGGSAPIKIKTADGKTITVNAKDLSLELLKKADKVIITKPDGKKIELPAGAKIKKGDTVTIKIVKSAGGSA [r15_733_TrROS_Hall]	-0.437 ± 0.21	0.153 ± 0.11	-0.336 ± 0.33
SAGGSAGGSAGLEVPEGYEVKILDVNPETLPNGERVVSMTVLIIDPDGNPRKVEFRFYAPSAGGSAGGSAGG [r11_570_TrMRF]	2.1 ± 0.063	2.47 ± 0.17	2.27 ± 0.084
SAGGSANDKDGQKKKQIKPIKIELPIPPGMEIEEINPGNGMIMIRWPENGWTWMFSLDDGKIFVMDSAGGSA [r15_452_TrROS]	2.13 ± 0.19	1.54 ± 0.058	1.86 ± 0.22
SAGGSAGGSAGKPEVKVEAEVEPYPETDLVVVNVRVYVDGVPVEIPFVVPPSVAEAFLKASAGGSAGGSAGG [r11_700_TrMRF]	1.26 ± 0.024	1.08 ± 0.03	1.16 ± 0.048
SAKKLDIKVDGIQRPENNVMILIRIDPGLPPEKDVTITIKGKNGHKQEIPYENDHIYIMVPAQDITIKISAG [r14_350_TrROS]	2.68 ± 0.045	1.8 ± 0.077	2.25 ± 0.34
SAGGSDTLKKLFPGVKEIEIEVEPYWVPMPPEMAKDNPEAPGQTFPVPRVKITIKIELPRDPDGKLSAGGSA [r2_404_TrROS]	0.324 ± 0.18	1.09 ± 0.065	0.772 ± 0.12
SAGMEEKLVEAVFEEGPLEEAVEFIRDFLESEGYEVEPLEVEVLSVEETEEGPRVRVRARVLVRPPDASAGG [r19_325_TrMRF]	1.52 ± 0.16	1.11 ± 0.081	1.34 ± 0.18
SAGGSAGGSAVITTETGGDSTVTTTTSLTGEGGTLTTTTTTTTTDGTTTTTTTTTDTGLSPTSSAGGSAGGS [r12_769_JUSTAS]	1.99 ± 0.024	2.41 ± 0.062	2.16 ± 0.034
SAGGALENAPITVNVTITITLKDEKGNTPVITIPVTATVTSQAEADALVNATAAALEAALGATVTVASAGGS [r8_149_JUSTAS]	2.04 ± 0.14	1.65 ± 0.12	1.95 ± 0.096
MRTVLLPIAGLPPEQVREAIERAVRAAREAGQPDTTLIVFNPGPAEQVEETTRLVQELADEPDFTVTVIPIS [r1_387_TrMRF]	0.0961 ± 0.12	0.685 ± 0.046	0.382 ± 0.14
SAGGMKITEEAIKNFPPGRWIQFRIPDDGYMVTIRVHDPGEIKINYRKFPPGNGEPREEQEHKIPLDSAGGS [r16_163_TrROS]	0.825 ± 0.28	0.845 ± 0.24	0.917 ± 0.27
SASMGPEALVERIAEEIRKELGVDAGYKAPVEVRRPPDLVVVDAKLTVYKPDGNPLGEKTVRVVLPPLLSAG [r14_708_JUSTAS]	0.0373 ± 0.22	-0.0399 ± 0.083	0.129 ± 0.29
SAGGPPPDTTVTVTLTRTTPTQWLIEFPATGEVREIPRDPAASDEEAKELVKELAKEEGYNVNINLTSAGGS [r16_446_JUSTAS]	0.438 ± 0.29	1.05 ± 0.081	0.812 ± 0.3
SAGGSAGGSALDPSAPYVVLIDIDIEPEKAEVEKIPGIPKYIVKKIDLKITIKIEIVSAKDASAGGSAGGSA [r18_137_TrMRF]	3.14 ± 0.087	2.28 ± 0.17	2.84 ± 0.08
SAMVLDVSELTKKAIEELKKKNPKPLSPEEIVELGKKVAAEVAEKLGIPLKEIKVEPTGKHPKAVAELPSAG [r14_147_TrMRF]	0.839 ± 0.059	0.527 ± 0.096	0.391 ± 0.52
SAGGSAGGSAGGGFYVKEIKGVKFGDKTLYIIRVYDDKGNEVFDVVAPPEVLKNLPPEVLSAGGSAGGSAGG [r7_263_TrMRF]	1.79 ± 0.037	1.04 ± 0.015	1.52 ± 0.045
SADPVYYKITITLYIKGDSSSTKTFEIVVPAGDVEKAKEEAIKKIKEETGKPILKVETEVTKVPPEELLSAG [r14_104_JUSTAS]	4.35 ± 0.13	3.89 ± 0.4	4.35 ± 0.17
SAGGSAMKEITIEVDGKTVRVKVYFKDTGKVVERTFPKGTSVEELAKELEEEFGKDVEIVEVEEVPSAGGSA [r15_544_TrROS_Hall]	3.57 ± 0.11	2.43 ± 0.11	3.24 ± 0.15

Reference: the supplement of paper PMC12764529
